Test results reported in US20110300113A1, “Death Receptor CD95 Controls Neurogenesis of Adult Neural Stem Cells in Vivo and in Vitro” (DEUTSCHES KREBSFORSCHUNGSZENTRUM, priority 2006, published 2011).
One block for each molecule: values may come before it.

How the values were obtained:
[1] = test system: GSK3β and AKT phosphorylation; assay: Western blot of GSK3β and AKT phosphorylation in NSCs; type: cell-based, mouse; settings: inhibitor pretreatment
Experimental: Western Blots. Phosphorylated GSK3β (P-Ser9-GSK3β, 1:1000), phosphorylated AKT (P-Ser473-KT, 1:1000), total AKT (T-AKT, 1:1000), Src family kinases (Src, 1:1000), cleaved caspase 3 (1:250), total β-Catenin (1:1000) and phosphorylated src (Tyr416) were purchased from Cell Signaling/New England Biolabs. pp60(c-Src) antibody was purchased from Upstate. Antibody against total GSK3β (T-GSK3β, 1:1000), were purchased from Santa Cruz. The PI3K inhibitor […] (25 μM) and the Src family kinase inhibitor PP2 (20 μM) were purchased from Calbiochem. Cells were preincubated with inhibitors 30 minutes (LY 294002) and 1 hour (PP2) prior to treatment. Cells were lysed for further biochemical analysis. Protein extraction and immunoblotting was performed as previously described.

[2] = molecular target: CD95 (APO-1 or Fas), mouse, endogenous in neural stem cells / brain tissue (mouse) (UniProt P25446); assay: cell-based or functional assay
neural progenitor cells = assay: GFAP expression (glial differentiation) in neural progenitor cells; type: cell-based, mouse; settings: data not shown
Experimental: For staining of intracellular markers, cells were harvested, fixed with 4% PFA for 10 min on ice, washed and permeabilized using 0.1% Saponin (Sigma-Aldrich) in PBS with 10% FCS (SAP). Cells were incubated with primary antibody or isotype for 30 min on ice. Cells were washed three time with SAP and incubated with secondary antibody for 30 min on ice. Cells were washed again three times with SAP and analysed. Antibodies used were: anti β-III-tubulin (Chemicon) 1:100, anti GFAP (Chemicon) 1:100 and isotype mouse IgG1 (Sigma) 1:20. Secondary antibody was goat anti-mouse PE 1:100 (Dianova). To quantify DNA fragmentation, cells detached with trypsin were centrifuged, washed and fixed with 70% ethanol at −20° C. for 1 h. Fixed cells were resuspended in a hypotonic lysis buffer (0.1% sodium citrate and 0.1% Triton X-100) containing […] of propidium iodide, incubated at 4° C. overnight. After final washings, all samples were analysed using a FACS-Calibur (Becton Dickinson) and CellQuest Software (Becton Dickinson).
Mouse adult neural stem cell culture. NSCs were isolated as previously described^30. Briefly, 6 week old female C57BL6 mice were sacrificied and tissue from hippocampus, SVZ and spinal cord was dissected out. […]

mouse adult SVZ NSCs = assay: Gene expression by quantitative real-time PCR in adult SVZ NSCs; type: cell-based; settings: 48 h after stimulation
Experimental: Real-time Quantitative PCR. 24 h cells after plating cells were stimulated with 1 activation unit of CD95L-T4. After 48 h RNA was isolated using the RNeasy Mini Kit (Qiagen). Real-time quantitative PCR was carried out using Sybr Green core kits (Eurogentec) and Uracil-N-glycosylase (Eurogentec). For determining CD95L induction after global ischemia, the hippocampi were dissected out and stored in RNAlater reagent (Ambion). RNA was extracted using the RNeasy Mini Kit (Qiagen). Real-time quantitative PCR was carried out using Sybr Green core kits (Eurogentec) and Uracil-N-glycosylase (Eurogentec). Primers used for quantitative real-time PCR were designed using Primer 3 software (http://fokker.wi.mit.edu/cgi-bin/primer3/primer3_www.cgi).

SVZ NSCs = assay: β-III-tubulin expression in adult SVZ neural progenitor cells (flow cytometry); type: cell-based, mouse; settings: exogenous BDNF alone; data not shown
Excerpt: Lentiviral infections. SVZ NSCs were infected with the lentiviral vector pEIGW and pEIGW-GSK3βS9A at a multiplicity of infection (MOI) of 5. The plasmids were constructed by replacing the eGFP sequence between the EF1α promotor and the WPRE element in pWPTS-eGFP with the IRES-eGFP cassette form pIRES2-eGFP (Clontech, Germany). The recombinant lentiviral vector pEIGW-GSK3βS9A was constructed using pcDNA3 HA-GSK3βS9A. This vector encodes a constitutively active GSK3β mutant containing a serine-to-alanine substitution at residue 9 (GSK3βS9A). Expression of all transgenes was confirmed in infected cells by FACS analysis of GFP expression. The percentage of infected cells was 70-90%.
siRNA. […] 48 h later pp60 src knockdown was assessed by Western Blot. At the same time, cells were stimulated with CD95L-T4 and analysed after 48 h for β-III-tubulin positive cells.
For staining of intracellular markers, cells were harvested, fixed with 4% PFA for 10 min on ice, washed and permeabilized using 0.1% Saponin (Sigma-Aldrich) in PBS with 10% FCS (SAP). […] Cells were washed again three times with SAP and analysed. […] To quantify DNA fragmentation, cells detached with trypsin were centrifuged, washed and fixed with 70% ethanol at −20° C. for 1 h. […] After final washings, all samples were analysed using a FACS-Calibur (Becton Dickinson) and CellQuest Software (Becton Dickinson). […]

Sequence of CD95 (APO-1 or Fas), mouse, endogenous in neural stem cells / brain tissue (mouse) (P25446 22-327): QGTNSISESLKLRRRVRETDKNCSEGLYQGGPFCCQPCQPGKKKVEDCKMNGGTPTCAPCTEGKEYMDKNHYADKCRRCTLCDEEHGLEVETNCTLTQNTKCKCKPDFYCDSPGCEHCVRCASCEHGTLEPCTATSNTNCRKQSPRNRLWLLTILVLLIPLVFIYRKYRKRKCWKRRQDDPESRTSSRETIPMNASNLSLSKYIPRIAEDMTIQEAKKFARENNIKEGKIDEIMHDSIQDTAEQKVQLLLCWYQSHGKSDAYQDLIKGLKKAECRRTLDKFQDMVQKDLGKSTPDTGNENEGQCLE

Molecule: CC(C)(C)n1nc(-c2ccc(Cl)cc2)c2c(N)ncnc21 [PP2]
phosphorylation of GSK3β ([1]; CD95-induced): inhibited phosphorylation
phosphorylation of AKT ([1]; induced by CD95L): inhibited phosphorylation

PI3K activity at 1 min after treatment with 1 U of CD95L-T4 (relative to untreated = 1) (fold of untreated) [2]: 1.38
PI3K activity at 5 min after treatment with 1 U of CD95L-T4 (relative to untreated = 1) (fold of untreated) [2]: 1.53
β-III-tubulin positive cells, NSCs with control siRNA, after CD95L-T4 [2]: 18.1%
β-III-tubulin positive cells, NSCs with transfection reagent only, after CD95L-T4 [2]: 17.1%
Molecule: mus musculus CD95-Ligand-T4 (mmCD95L-T4) (from UniProt P41047 140-279; P10104 458-484)

B1: CNTF: inducer of astrocytic differentiation (protein, UniProt P26441 1-200, looked up)
Ciliary neurotrophic factor: MAFTEHSPLTPHRRDLCSRSIWLARKIRSDLTALTESYVKHQGLNKNINLDSADGMPVASTDQWSELTEAERLQENLQAYRTFHVLLARLLEDQQVHFTPTEGDFHQAIHTLLLQVAAFAYQIEELMILLEYKIPRNEADGMPINVGDGGLFEKKLWGLKVLQELSQWTVRSIHDLRFISSHQTGIPARGSHYIANNKKM
GFAP expression (neural progenitor cells): enhanced expression of GFAP
BDNF expression (mouse adult SVZ NSCs): induced
Doublecortin like kinase1 (DCLK) expression (mouse adult SVZ NSCs): no effect on DCLK expression
Jagged1 mRNA levels (mouse adult SVZ NSCs): decreased
Neurogenin (Ngn1) expression (mouse adult SVZ NSCs): almost complete loss of Ngn1 mRNA

B2: BDNF: brain-derived nerve factor, a neurotrophin (protein, UniProt P23560 19-247, looked up)
Neurotrophic factor BDNF …: APMKEANIRGQGGLAYPGVRTHGTLESVNGPKAGSRGLTSLADTFEHVIEELLDEDQKVRPNEENNKDADLYTSRVMLSSQVPLEPPLLFLLEEYKNYLDAANMSMRVRRHSDPARRGELSVCDSISEWVTAADKKTAVDMSGGTVTVLEKVPVSKGQLKQYFYETKCNPMGYTKEGCRGIDKRHWNSQCRTTQSYVRALTMDSKKRIGWRFIRIDTSCVCTLTIKRGR
β-III-tubulin expression (SVZ NSCs): did not increase β-III-tubulin expression
